# Measured values taken from US20230050380A1 (CHIOME BIOSCIENCE, published 2023).
# Numbering of substitutions follows the chain as printed.
# T1: full-length hCDCP1 with N-terminal c-Myc tag (expression vector GS01), on Ba/F3-hCDCP1 cells or … (human, UniProt Q9H5V8 30-836)
# T1 construct: also called human CDCP1; hCDCP1 forced expression cells
# T1 sequence: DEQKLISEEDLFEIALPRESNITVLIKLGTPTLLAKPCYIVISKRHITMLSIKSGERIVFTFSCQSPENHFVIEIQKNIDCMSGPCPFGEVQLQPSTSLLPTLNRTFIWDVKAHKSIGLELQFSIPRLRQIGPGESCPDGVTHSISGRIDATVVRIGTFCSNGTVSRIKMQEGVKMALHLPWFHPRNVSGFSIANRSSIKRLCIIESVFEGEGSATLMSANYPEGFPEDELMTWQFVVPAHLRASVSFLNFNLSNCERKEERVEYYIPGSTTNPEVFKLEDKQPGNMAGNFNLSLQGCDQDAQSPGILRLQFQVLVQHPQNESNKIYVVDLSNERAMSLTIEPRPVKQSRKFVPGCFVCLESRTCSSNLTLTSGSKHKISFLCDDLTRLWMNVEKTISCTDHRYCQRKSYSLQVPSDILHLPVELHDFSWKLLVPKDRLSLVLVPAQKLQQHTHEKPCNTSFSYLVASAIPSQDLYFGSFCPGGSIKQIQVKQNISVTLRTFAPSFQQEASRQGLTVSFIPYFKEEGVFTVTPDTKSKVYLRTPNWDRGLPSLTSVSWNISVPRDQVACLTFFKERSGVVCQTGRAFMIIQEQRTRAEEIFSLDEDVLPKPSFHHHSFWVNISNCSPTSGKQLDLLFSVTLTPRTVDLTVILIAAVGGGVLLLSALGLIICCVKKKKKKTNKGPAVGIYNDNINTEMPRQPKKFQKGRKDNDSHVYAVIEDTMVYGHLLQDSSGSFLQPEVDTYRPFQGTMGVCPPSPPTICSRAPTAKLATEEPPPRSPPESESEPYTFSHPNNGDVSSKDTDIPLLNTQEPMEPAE
# T2: hCDCP1 expressed by PC3 cells and other human cancer cell lines (endogenous) (human, UniProt Q9H5V8 30-836)
# T2 construct: Endogenous protein on cell lines; PC3 is said to express also the cleaved form; also called human CDCP1
# T2 sequence: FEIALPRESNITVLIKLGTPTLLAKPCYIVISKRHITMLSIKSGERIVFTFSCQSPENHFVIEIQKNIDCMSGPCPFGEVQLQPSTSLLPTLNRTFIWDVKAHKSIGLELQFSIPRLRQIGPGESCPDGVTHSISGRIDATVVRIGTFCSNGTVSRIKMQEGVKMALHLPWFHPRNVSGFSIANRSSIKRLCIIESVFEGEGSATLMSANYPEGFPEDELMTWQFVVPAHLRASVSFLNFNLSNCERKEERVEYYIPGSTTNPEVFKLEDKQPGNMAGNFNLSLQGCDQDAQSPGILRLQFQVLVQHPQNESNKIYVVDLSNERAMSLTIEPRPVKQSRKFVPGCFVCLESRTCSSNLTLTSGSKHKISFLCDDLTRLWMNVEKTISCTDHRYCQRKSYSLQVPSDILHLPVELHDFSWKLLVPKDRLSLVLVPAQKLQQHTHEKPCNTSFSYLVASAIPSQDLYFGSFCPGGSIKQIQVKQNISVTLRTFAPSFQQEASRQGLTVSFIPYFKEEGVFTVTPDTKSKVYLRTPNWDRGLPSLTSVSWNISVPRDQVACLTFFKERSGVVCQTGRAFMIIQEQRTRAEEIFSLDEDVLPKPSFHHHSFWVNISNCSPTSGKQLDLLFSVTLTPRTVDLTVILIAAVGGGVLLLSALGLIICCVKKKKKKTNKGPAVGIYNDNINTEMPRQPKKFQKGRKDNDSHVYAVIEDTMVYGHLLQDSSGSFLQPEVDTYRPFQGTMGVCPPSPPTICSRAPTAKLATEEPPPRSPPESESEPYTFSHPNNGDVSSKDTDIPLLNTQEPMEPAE
# T3: crab-eating macaque CDCP1 with N-terminal c-Myc tag (expression vector GS02), on crab-eating macaque … (crab-eating macaque (Macaca …, UniProt Q9H5V8 30-836 (human entry)))
# T3 chain: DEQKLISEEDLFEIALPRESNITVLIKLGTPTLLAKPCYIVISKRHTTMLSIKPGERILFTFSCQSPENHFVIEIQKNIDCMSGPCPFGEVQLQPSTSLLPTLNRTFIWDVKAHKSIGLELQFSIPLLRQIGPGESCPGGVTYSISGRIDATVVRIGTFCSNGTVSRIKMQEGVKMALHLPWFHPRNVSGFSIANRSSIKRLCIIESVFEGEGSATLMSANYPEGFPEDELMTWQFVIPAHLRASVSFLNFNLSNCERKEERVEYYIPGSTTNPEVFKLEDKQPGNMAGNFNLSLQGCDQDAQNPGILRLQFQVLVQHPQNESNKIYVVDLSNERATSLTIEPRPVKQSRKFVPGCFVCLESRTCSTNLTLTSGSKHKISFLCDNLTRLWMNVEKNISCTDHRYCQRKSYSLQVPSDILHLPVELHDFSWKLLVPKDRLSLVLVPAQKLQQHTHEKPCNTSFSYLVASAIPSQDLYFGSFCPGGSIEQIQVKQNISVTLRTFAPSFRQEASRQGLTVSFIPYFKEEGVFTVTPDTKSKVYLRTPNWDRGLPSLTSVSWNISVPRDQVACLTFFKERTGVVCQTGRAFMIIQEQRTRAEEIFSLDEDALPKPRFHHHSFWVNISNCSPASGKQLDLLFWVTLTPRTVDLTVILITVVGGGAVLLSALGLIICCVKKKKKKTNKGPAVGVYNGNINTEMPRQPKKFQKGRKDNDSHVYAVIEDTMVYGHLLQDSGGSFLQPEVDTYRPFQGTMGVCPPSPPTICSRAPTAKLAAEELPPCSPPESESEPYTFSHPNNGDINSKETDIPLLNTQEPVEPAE
# B1: mh14A055 (antibody, human IgG1, kappa, V domains shown)
# VH: EVQLQESGPGLVAPSQSLSITCTVSGFSLTGYGVNWVRQPPGKGLEWLGMIWGDGSTDYNSALKSRLSISKDNSKSQVFLKMNSLQTDDTARYYCARDGYDGAMDYWGQGTSVTVSS
# VL: not shown
# notes: mouse-human chimeric antibody of 14A055, human IgG1/kappa constant regions
# B2: mh14A025HCori/LCori (antibody, human IgG1, kappa, V domains shown)
# VH: EVQLQESGAELVRPGALVKLSCKASGFNIKDYYMHWVKQRPEQGLEWIGWIDPENGNTIYDPKFQGKASITADTSSNTAYLQLSSLTSEDTAVYYCGGLLYAMDYWGQGTSVTVSS
# VL: DIQMTQTTSSLSASLGDRVTISCRASQDISNYLNWYQQKPDGTVKLLIYFTSRLHSGVPSRFSGSGSGTDYSLTISNLEQEDIATYFCQQGNTLPRTFGGGTKLEIRR
# notes: mouse-human chimeric antibody, human IgG1/kappa constant regions; also called mh14A025HCori/LCori-biotin (biotinylated form)
# B3: mh14A043HCori/LCori (antibody, human IgG1, kappa, V domains shown)
# VH: B2 VH with H35N, G97Y, L99S, L100S, A102R, M103F, D104T, S111L
# VL: QIVLIQSPALMSASPGEKVTMTCSASSSVSYMYWYQQKPRSSPKPWIYLTSNLASGVPARFSGSGSGTSYSLTISSMEAEDAATYYCQQWSSNPFTFGSGTKLEIKR
# notes: mouse-human chimeric antibody, human IgG1/kappa constant regions; also called mh14A043HCori/LCori-biotin (biotinylated form)
# B4: mh12A041HCori/LCori (antibody, human IgG1, kappa, V domains shown)
# VH: EVQLQESGPGILQPSQTLSLTCSFSGFSLSTSGMGVSWIRQPSGKGLEWLAHIYWDDDKRYNPSLKSRLTISKDTSSNQVFLKITSVDTADTATYYCARSGSYYGSSLDCWGQGTTLTVSS
# VL: DVLMTQTPLSLPVSLGDQASISCRSSQSIVHSNGNTYLEWYLQKPGQSPKLLIYKVSNRFSGVPDRFSGSGSGTDFTLKISRVEAEDLGVYYCFQGSHVPWTFGGGTKLEIKR
# notes: mouse-human chimeric antibody, human IgG1/kappa constant regions; also called mh12A041HCori/LCori-biotin (biotinylated form)
# B5: mh14A063HCori/LCori (antibody, human IgG1, kappa, V domains shown)
# VH: EVQLQESGGGLVQPGGSLKLSCAASGFTFSSYTMSWVRQTPEKRLEWVAYISNGGGSTYYPDTVKGRFTISRDNAKNTLYLQMSSLKSEDTAMYYCARYDLGFAYWGQGTLVTVSS
# VL: NIVLTQSPASLAVSLGQRATISCRASESVDSYGNSFMHWYQQKPGQPPKLLIFLASNLESGVPARFSGSGSRTDFTLTIDPVEADDAATYYCQQNNEDPWTFGGGTNLEIKR
# notes: mouse-human chimeric antibody, human IgG1/kappa constant regions; also called mh14A063HCori/LCori-biotin (biotinylated form)
# B6: h14A063VH2/VL2 (antibody, human IgG1, kappa)
# heavy: not shown
# light: EIVLTQSPATLSLSPGERATLSCRASESVDSYGNSFMHWYQQKPGQAPRLLIFLASNLESGVPARFSGSGSGTDFTLTISSLEPEDFAVYYCQQNNEDPWTFGGGTKVEIKRTVAAPSVFIFPPSDEQLKSGTASVVCLLNNFYPREAKVQWKVDNALQSGNSQESVTEQDSKDSTYSLSSTLTLSKADYEKHKVYACEVTHQGLSSPVTKSFNRGEC
# notes: humanized antibody, human IgG1/kappa constant regions
# B7: h14A063VH4/VL2 (antibody, human IgG1, kappa, V domains shown)
# VH: B5 VH with Q5V, K19R, T40A, N53S, T78S, S84N, K87R, S88A, M93V
# VL: EIVLTQSPATLSLSPGERATLSCRASESVDSYGNSFMHWYQQKPGQAPRLLIFLASNLESGVPARFSGSGSGTDFTLTISSLEPEDFAVYYCQQNNEDPWTFGGGTKVEIKR
# notes: humanized antibody, human IgG1/kappa constant regions; also called h14A063VH4/VL2-biotin (biotinylated form)
# B8: h14A063VH4/VL1 (antibody, human IgG1, kappa, V domains shown)
# VH: B5 VH with Q5V, K19R, T40A, N53S, T78S, S84N, K87R, S88A, M93V
# VL: B7 VL with G72R
# notes: humanized antibody, human IgG1/kappa constant regions; also called h14A063VH4/VL1-biotin (biotinylated form)
# B9: h14A063VH3/VL2 (antibody, human IgG1, kappa)
# heavy: not shown
# light: B6 light
# notes: as for B6
# B10: h14A063VH3/VL1 (antibody, human IgG1, kappa)
# heavy: not shown
# light: B6 light with G72R
# notes: as for B6
# B11: CUB4 antibody (antibody, human IgG1, kappa, V domains shown)
# VH: EVQLVESGGGLVQPGGSLRLSCAASGFTFNSYGMSWVRQAPGKGLEWVATISSGGSYKYYVDSVKGRFTISRDNAKNSLYLQMNSLRAEDTAVYYCARHPDYDGVWFAYWGQGTLVTVSS
# VL: EIVLTQSPATLSLSPGERATMSCSVSSSVFYLHWYQQKPGQAPRLWIYDTSKLASGIPARFSGSGSGTDFTLTISSLEPEDFAVYYCQQWNSNPPTFGGGTKVEIKR
# notes: also called CUB4-biotin (biotinylated form)
# B12: 25A11 antibody (antibody, human IgG1, kappa, V domains shown)
# VH: QVQLQQPGAELVKPGASVKMSCKASGYTFTSYYMYWVKQRPGQGLEWIGEINPSHGGTNFNEKFKNKATLTVDKSSSTVYMQLSSLTSEDSAVYYCTRGGNYPYFAMDYWGQGTSVTVSS
# VL: B2 VL with F50Y, R96W, R107K
# notes: also called 25A11 biotin; 25A11-biotin (biotinylated form)
# Molecular target: T1, full-length hCDCP1 with N-terminal …
# Assay: flow cytometry on untreated Ba/F3-hCDCP1 cells (comparison of FIG. 8)
# Procedure: In order to investigate whether the obtained anti-hCDCP1 mouse-human chimeric antibodies bind to the N-terminal side of the serine protease cleavage site of the hCDCP1 molecules or bind to the transmembrane region side, […] the technique mentioned in the previous section. The following anti-hCDCP1 mouse-human chimeric antibody clones were evaluated: [0259] mh12A041HCori/LCori, mh14A025HCori/LCori, mh14A043HCori/LCori, mh14A055, mh14A063HCori/LCori, and mh14A091.
# […] It was confirmed by the same Western blotting as that mentioned in the previous section that the full-length hCDCP1 disappeared and only the cleaved hCDCP1 was present in the above-treated Ba/F3-CDCP1 cells. With respect to these cells, a dilution series of anti-hCDCP1 mouse-human chimeric antibodies from 5 μg/mL to 5 ng/mL was prepared, and was then reacted at 4° C. for 30 minutes. As a negative control, a similar dilution series of anti-RS virus antibodies described in the later section was prepared as a non-specific human IgG, and was then reacted at 4° C. for 30 minutes.
row,binding result,Binder
1,binds,B1

# Molecular target: T1, full-length hCDCP1 with N-terminal …
# Assay: flow cytometry on Ba/F3-hCDCP1 cells
row,binding result,Binder
1,binds,B2
2,binds,B3
3,binds,B4
4,binds,B5
5,binds,B6
6,binds,B7
7,binds,B8
8,binds,B9
9,binds,B10

# Molecular target: T2, hCDCP1 expressed by PC3 cells and other …
# Assay: cancer cells that express hCDCP1; method not given
row,binding result,Binder
1,binds,B11
2,binds,B12

# Molecular target: T3, crab-eating macaque CDCP1 with …
# Assay: flow cytometry on crab-eating macaque CDCP1-expressing CHO-K1 cells
# Text: The hCDCP1-expressing CHO-K1 cells and the crab-eating macaque CDCP1-expressing CHO-K1 cells were exfoliated and dispersed using 0.25% trypsin/EDTA (Nacalai Tesque, Inc.), and were then reacted with various concentrations of individual mouse-human chimeric antibodies, namely, mh12A041HCori/LCori, mh14A025HCori/LCori, mh14A043HCori/LCori, mh14A055, mh14A063HCori/LCori, and mh14A091. Thereafter, the binding property of the antibodies was observed by flow cytometry (FIG. 9). As a result, these 6 antibodies all reacted with the crab-eating macaque CDCP1, and in particular, the 5 antibodies other than mh14A055 reacted with both the human CDCP1 and the crab-eating macaque CDCP1 at the same levels.
row,binding result,Binder
1,binds,B2
2,binds,B3
3,binds,B1
4,binds,B4
5,binds,B5
